Measurements as given in paper PMC4096120 (Science signaling, 2013).

Target: eGFP-DGKζ (fusion of enhanced green fluorescent protein and diacylglycerol kinase ζ) (UniProt Q80UP3 1-929)
Experiment: co-IP

Chain of eGFP-DGKζ (fusion of enhanced green fluorescent protein and diacylglycerol kinase ζ) (Q80UP3 whole entry, the tested form may be a part): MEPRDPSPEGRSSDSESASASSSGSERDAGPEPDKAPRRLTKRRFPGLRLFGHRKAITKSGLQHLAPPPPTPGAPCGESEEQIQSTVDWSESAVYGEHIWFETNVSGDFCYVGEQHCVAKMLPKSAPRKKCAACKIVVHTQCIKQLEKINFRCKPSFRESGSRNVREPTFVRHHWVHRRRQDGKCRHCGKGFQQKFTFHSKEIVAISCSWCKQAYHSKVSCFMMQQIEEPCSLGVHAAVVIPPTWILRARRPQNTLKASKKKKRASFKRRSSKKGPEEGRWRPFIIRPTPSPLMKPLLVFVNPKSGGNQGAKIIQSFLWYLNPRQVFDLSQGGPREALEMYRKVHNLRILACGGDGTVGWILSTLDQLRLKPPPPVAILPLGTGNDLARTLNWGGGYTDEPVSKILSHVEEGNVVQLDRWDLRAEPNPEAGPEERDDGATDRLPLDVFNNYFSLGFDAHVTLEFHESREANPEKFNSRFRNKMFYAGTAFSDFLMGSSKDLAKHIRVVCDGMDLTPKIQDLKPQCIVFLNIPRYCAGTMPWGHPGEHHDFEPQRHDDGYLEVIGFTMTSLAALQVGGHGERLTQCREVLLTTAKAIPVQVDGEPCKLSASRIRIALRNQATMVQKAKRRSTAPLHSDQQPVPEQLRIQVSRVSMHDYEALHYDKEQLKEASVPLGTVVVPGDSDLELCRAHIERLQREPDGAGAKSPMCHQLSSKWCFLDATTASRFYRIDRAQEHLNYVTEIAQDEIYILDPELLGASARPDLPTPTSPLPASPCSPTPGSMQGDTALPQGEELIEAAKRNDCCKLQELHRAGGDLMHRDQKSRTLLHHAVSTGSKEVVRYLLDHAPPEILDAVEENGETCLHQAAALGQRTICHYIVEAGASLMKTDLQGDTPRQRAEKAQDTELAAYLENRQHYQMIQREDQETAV

fold binding relative to DGKα: ≤ 3 fold
B1: RasGRP1 (Ras guanyl nucleotide-releasing protein 1), from pEF6-huRasGRP1-myc/His wild-type plasmid (natural protein, human, UniProt O95267 1-797, looked up)
chain: MGTLGKAREAPRKPSHGCRAASKARLEAKPANSPFPSHPSLAHITQFRMMVSLGHLAKGASLDDLIDSCIQSFDADGNLCRSNQLLQVMLTMHRIVISSAELLQKVITLYKDALAKNSPGLCLKICYFVRYWITEFWVMFKMDASLTDTMEEFQELVKAKGEELHCRLIDTTQINARDWSRKLTQRIKSNTSKKRKVSLLFDHLEPEELSEHLTYLEFKSFRRISFSDYQNYLVNSCVKENPTMERSIALCNGISQWVQLMVLSRPTPQLRAEVFIKFIQVAQKLHQLQNFNTLMAVIGGLCHSSISRLKETSSHVPHEINKVLGEMTELLSSSRNYDNYRRAYGECTDFKIPILGVHLKDLISLYEAMPDYLEDGKVNVHKLLALYNHISELVQLQEVAPPLEANKDLVHLLTLSLDLYYTEDEIYELSYAREPRNHRAPPLTPSKPPVVVDWASGVSPKPDPKTISKHVQRMVDSVFKNYDHDQDGYISQEEFEKIAASFPFSFCVMDKDREGLISRDEITAYFMRASSIYSKLGLGFPHNFQETTYLKPTFCDNCAGFLWGVIKQGYRCKDCGMNCHKQCKDLVVFECKKRAKNPVAPTENNTSVGPVSNLCSLGAKDLLHAPEEGPFTFPNGEAVEHGEESKDRTIMLMGVSSQKISLRLKRAVAHKATQTESQPWIGSEGPSGPFVLSSPRKTAQDTLYVLPSPTSPCPSPVLVRKRAFVKWENKDSLIKSKEELRHLRLPTYQELEQEINTLKADNDALKIQLKYAQKKIESLQLEKSNHVLAQMEQGDCS
